Measured values taken from patent publication US20250382355A1 (Merck Sharp & Dohme, published 2025).
Residue numbers refer to the chain shown, from its start.

B1: 1E4 VHH-Fc (Fc fusion)
chain: QVLLVESGGGLVQAGGLLRLACSASGRTFTENVMGWFRQAPGKEREFVAAINWNTGSTYYSDSRKGRFTISKDNAKNTMFLQINNLKPEDTAVYYCGGTSSSYYYIGEFIPDYWGQGTQVTVSS
B2: 8E9 VHH-Fc (Fc fusion)
chain: QVQLVESGGGLVEAGGSLRLSCVASGSSSSINAMGWYRQAPGKQRELVASISHDGETKYANSVKGRFTISRGNAKNTIYLQMNSLKPEDTAVYYCVGDVAWVVVAGEYDYWGQGTQVTVSS
B3: 5D7 VHH-Fc (Fc fusion)
chain: QVQLVESGGGLVQAGGSLRLSCAASGRTGSRYIMGWFRQAPGKEREFVAAINWRGDSTYYADSVKGRFTIARDNAKNTAYLQMNSLKPEDTAVYYCVADRGESYYYTRSTEYTYWGQGTQVTVSS
B4: 3D4 VHH-Fc (Fc fusion)
chain: QVQLVESGGGLVQPGGSLRLSCAASGFTLDLNSIGWFRQAPGKEREGVSCISPSGSRMHYADSVKGRFTISRDNAKNTVYLQMNSLKPEDTAVYYCATGSPSYHYCSMYGLEYDSWGQGTQVTVPS
B5: 19C10 VHH-Fc (Fc fusion)
chain: B4 chain with G55A, R57S, M58T, S100T, S115D, P125S
B6: 5A6 VHH-Fc (Fc fusion)
chain: QVQLVESGGGLAQAGGSLRLSCATSGLTFSMSAMGWFRQAPGNEREFVGVINWNGGSSRYADSVRGRFTISRDNAKNTVYLQMNSLKPEDTGVYYCAADALNIGTGEVNPRLYDYWGQGTQVMVSS
B7: 7A9 VHH-Fc (Fc fusion)
chain: QVQLVESGGGLVQAGGSLRLSCSASGGTASRSAMGWFRQAPGKEREFVAGISRRNSGSTYVADSYEDSVKGRFTISRDNAKNTIYLQMNSLKPEDTAVYYCAAEPTLGWYVPRRSVEYEYWGQGTQVTVSS
B8: 11F8 VHH-Fc (Fc fusion)
chain: QVQLVESGGGLVQAGGSLRLSCAASGRTVGYYAVGWFRQAPGKERDFVAAISWSGRNTNYADSVTGRFTIFRDNAKNTVDLQMNSLKPEDTAVYYCAADYWNYGSGSEVPNNYDTWGQGTQVTVSS
B9: 13C8 VHH-Fc (Fc fusion)
chain: QVQLVESGGGLVQAGGSLRLSCAASGRTVNKYMTGWFRQTPGKEREFVASIDWSSTTTHYANSVKGRFTISRDKVKNTVYLQMNGLKPEDTAVYYCAAHQDSSYGYTILPIDYDSWGQGTQVTVSS
B10: 15H1 VHH-Fc (Fc fusion)
chain: QVQLVESGGGLAQAGGSLRLSCASSGLIFSGSAMGWFRQAPGKEREFVGVISWNGRTTYADSVKGRFTISRDDAVNMVWLQMNNLKPEDTAVYYCAADHLNYGSGDVNPRTYDYWGQGTQVTVSS
B11: 15H7 VHH-Fc (Fc fusion)
chain: QVQLVESGGRLVQAGGSLRLSCAAPGRTFRNLTLGWFRQAPGKEREFVASTSWPDDEMTYYTDSVKGRFTISRDNAKNTVYLQMNSLKPEDTAVYYCAAASWSGRSTLSYDYDYWGQGTQVTVST

Biological target: T1, SARS-CoV-2 prefusion-stabilized spike protein (SARS-CoV-2-PreS) (SARS-CoV-2, UniProt P0DTC2 14-1208)
Experiment: ELISA

Binder	EC50 [nM]
B1	0.04
B2	0.08
B3	0.11
B4	0.13
B5	0.06
B6	0.14
B7	0.16
B8	0.19
B9	0.09
B10	0.14
B11	0.05

Biological target: SARS-CoV-2 Alpha B.1.1.7 spike on pseudovirus (SARS-CoV-2)
Experiment: cell-based or functional assay

Binder	pseudovirus neutralization IC50 [nM]
B1	2.2
B4	1.5
B5	0.85
B6	26

Biological target: SARS-CoV-2 Beta B.1.351 spike on pseudovirus (SARS-CoV-2)
Experiment: cell-based or functional assay

Binder	pseudovirus neutralization IC50 [nM]
B1	0.58
B4	1.1
B5	0.66
B6	54

Biological target: SARS-CoV-2 Gamma P.1 spike on pseudovirus (SARS-CoV-2)
Experiment: cell-based or functional assay

Binder	pseudovirus neutralization IC50 [nM]
B1	2.6
B4	0.59
B5	0.8
B6	3.1

Biological target: SARS-CoV-2 Omicron spike on pseudovirus (SARS-CoV-2)
Experiment: cell-based or functional assay

Binder	pseudovirus neutralization IC50 [nM]
B2	429
B3	221
B7	44

Biological target: T1, SARS-CoV-2 prefusion-stabilized spike …
Experiment: Biacore, apparent affinity

Binder	Kd [nM]
B1	< 0.2
B2	< 0.2
B3	< 0.2
B4	< 0.2
B5	< 0.2
B6	< 0.2
B7	< 0.2
B8	< 0.2
B9	< 0.2
B10	< 0.2
B11	< 0.2

Biological target: T2, Biotinylated CoV2 Spike ECD PreS-AVI protein (SARS-CoV-2, UniProt P0DTC2 14-1208)
Experiment: Octet binning; competitor 7A9

Binder	binning response
B1	0.26
B2	0.39
B3	0.31
B4	0.32
B5	0.36
B6	0.37
B7	0.06
B8	0.35
B9	0.37
B10	0.35
B11	0.37

Biological target: T2, Biotinylated CoV2 Spike ECD PreS-AVI …
Experiment: Octet binning; competitor 8E9

Binder	binning response
B1	0.09
B2	0.08
B3	0.1
B4	0.08
B5	0.1
B6	0.09
B7	0.37
B8	0.12
B9	0.09
B10	0.08
B11	0.06

Biological target: T2, Biotinylated CoV2 Spike ECD PreS-AVI …
Experiment: Octet binning; competitor 9B2

Binder	binning response
B1	0.11
B2	0.11
B3	0.12
B4	0.09
B5	0.11
B6	0.11
B7	0.38
B8	0.13
B9	0.11
B10	0.08
B11	0.08

Biological target: T2, Biotinylated CoV2 Spike ECD PreS-AVI …
Experiment: Octet binning; competitor 11F8

Binder	binning response
B1	0.11
B2	0.11
B3	0.12
B4	0.09
B5	0.12
B6	0.09
B7	0.32
B8	0.14
B9	0.11
B10	0.09
B11	0.11

Biological target: T2, Biotinylated CoV2 Spike ECD PreS-AVI …
Experiment: Octet binning; competitor 13C8

Binder	binning response
B1	0.12
B2	0.11
B3	0.15
B4	0.1
B5	0.1
B6	0.09
B7	0.52
B8	0.15
B9	0.1
B10	0.1
B11	0.08

Biological target: T2, Biotinylated CoV2 Spike ECD PreS-AVI …
Experiment: Octet binning; competitor 15H1

Binder	binning response
B1	0.11
B2	0.13
B3	0.16
B4	0.1
B5	0.1
B6	0.12
B7	0.37
B8	0.15
B9	0.11
B10	0.11
B11	0.09

Biological target: T2, Biotinylated CoV2 Spike ECD PreS-AVI …
Experiment: Octet binning; competitor 15H7

Binder	binning response
B1	0.11
B2	0.11
B3	0.15
B4	0.09
B5	0.1
B6	0.1
B7	0.34
B8	0.14
B9	0.1
B10	0.11
B11	0.1

Biological target: T2, Biotinylated CoV2 Spike ECD PreS-AVI …
Experiment: Octet binning; competitor 1A11

Binder	binning response
B1	0.09
B2	0.09
B3	0.12
B4	0.08
B5	0.08
B6	0.09
B7	0.32
B8	0.12
B9	0.11
B10	0.08
B11	0.09

Biological target: T2, Biotinylated CoV2 Spike ECD PreS-AVI …
Experiment: Octet binning; competitor Std-A

Binder	binning response
B1	0.28
B2	0.36
B3	0.28
B4	0.34
B5	0.35
B6	0.39
B7	0.34
B8	0.17
B9	0.34
B10	0.35
B11	0.36

Biological target: T2, Biotinylated CoV2 Spike ECD PreS-AVI …
Experiment: Octet binning; competitor Std-B

Binder	binning response
B1	0.24
B2	0.34
B3	0.25
B4	0.31
B5	0.35
B6	0.35
B7	0.3
B8	0.29
B9	0.31
B10	0.3
B11	0.32

Biological target: T2, Biotinylated CoV2 Spike ECD PreS-AVI …
Experiment: Octet binning; competitor Std-D

Binder	binning response
B1	0.08
B2	0.04
B3	0.12
B4	0.04
B5	0.04
B6	0.03
B7	0.46
B8	0.08
B9	0.04
B10	0.05
B11	0.08
